Data: the supplement of paper PMC9233669
Variants at the floor of the assay were thinned out.

Legend:
biotinyl-Ile-oxazolone = assay: self-aminoacylation, catalytic enhancement (BIO) (fold over background); higher = more active; k-Seq, kA / k0A0; sequences stand for … in GGGAAUGGAUCCACAUCUACGAAUUC…UUCACUGCAGACUUGACGAAGCUG
Outline: (§1)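 Mutagenized RNA pools with a 21-nt variable region (0.43 μM) reacted with each biotinyl-aminoacyl-oxazolone at 2–1250 μM. Reactions ran in 50 μL HEPES/NaCl/KCl/MgCl2/CaCl2 buffer with 5% acetonitrile, pH 6.9–7.0, for 90 minutes at room temperature. Streptavidin-captured RNA was quantified by triplicate qPCR and Illumina sequencing, and per-sequence fraction reacted was fit to a pseudo-first-order model with 1000 bootstraps. Catalytic enhancement is median kA divided by the uncatalyzed rate, the low-activity peak of a bimodal Gaussian fit.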

biotinyl-Phe-oxazolone = assay: self-aminoacylation, catalytic enhancement (BFO) (fold over background); higher = more active; k-Seq, kA / k0A0; sequences stand for … in GGGAAUGGAUCCACAUCUACGAAUUC…UUCACUGCAGACUUGACGAAGCUG
Outline: as §1

biotinyl-Met-oxazolone = assay: self-aminoacylation, catalytic enhancement (BMO) (fold over background); higher = more active; k-Seq, kA / k0A0; sequences stand for … in GGGAAUGGAUCCACAUCUACGAAUUC…UUCACUGCAGACUUGACGAAGCUG
Outline: as §1

biotinyl-Val-oxazolone = assay: self-aminoacylation, catalytic enhancement (BVO) (fold over background); higher = more active; k-Seq, kA / k0A0; sequences stand for … in GGGAAUGGAUCCACAUCUACGAAUUC…UUCACUGCAGACUUGACGAAGCUG
Outline: as §1

biotinyl-Trp-oxazolone = assay: self-aminoacylation, catalytic enhancement (BWO) (fold over background); higher = more active; k-Seq, kA / k0A0; sequences stand for … in GGGAAUGGAUCCACAUCUACGAAUUC…UUCACUGCAGACUUGACGAAGCUG
Outline: as §1

biotinyl-Leu-oxazolone = assay: self-aminoacylation, catalytic enhancement (BLO) (fold over background); higher = more active; k-Seq, kA / k0A0; sequences stand for … in GGGAAUGGAUCCACAUCUACGAAUUC…UUCACUGCAGACUUGACGAAGCUG
Outline: as §1

| Sequence | self-aminoacylation (biotinyl-Ile-oxazolone) | self-aminoacylation (biotinyl-Phe-oxazolone) | self-aminoacylation (biotinyl-Met-oxazolone) | self-aminoacylation (biotinyl-Val-oxazolone) | self-aminoacylation (biotinyl-Trp-oxazolone) | self-aminoacylation (biotinyl-Leu-oxazolone) |
| --- | --- | --- | --- | --- | --- | --- |
| AAAUUUGCGAAUAGUCGCAAG [Fam3.1 aminoacylation ribozyme variant] | 1.71 | 1.99 | 1.59 | 1.56 | 1.54 | 1.33 |
| AUUCAGCUAGGUCAACGGGUG [Fam2.2 aminoacylation ribozyme variant] | 1.81 | 5.84 | 1.92 | 1.83 | 2.6 | 2.43 |
| CCACAGUUCAAUCAAUCGGUC [Fam1B.1 aminoacylation ribozyme variant] | 0.806 | 2.95 | 0.905 | 0.96 | 2.08 | 0.881 |
| AAGUUUGGUAAUAGUCGUAAG [Fam3.1 aminoacylation ribozyme variant] | 1.04 | 1.44 | 0.961 | 0.916 | 1.11 | 0.801 |
| CCACACUUCAAGCAAACGAUC [Fam1B.1 aminoacylation ribozyme variant] | 0.513 | 0.772 | 0.44 | 0.589 | 0.585 | 0.422 |
| AUUCACCUAGCUCACCGGGUG [Fam2.2 aminoacylation ribozyme variant] | 2.15 | 16.7 | 3.66 | 2.52 | 2.11 | 2.64 |
| AAGUUCGCUAAUAGUCGCAUG [Fam3.1 aminoacylation ribozyme variant] | 2.16 | 8.49 | 2.27 | 2.37 | 3.05 | 2.88 |
| AUUACAGUGGUCAUCGAGUGA [Fam2.1 aminoacylation ribozyme variant] | 1.75 | 1.09 | 1.87 | 1.76 | 1.78 | 1.44 |
| AUGACCCUGGUUAUCGAGUGA [Fam2.1 aminoacylation ribozyme variant] | 3.39 | 15.5 | 6.78 | 3.36 | 8.52 | 7.14 |
| CUACUUCAAACUAUCGGUUUG [Fam1A.1 aminoacylation ribozyme variant] | 0.944 | 0.88 | 0.748 | 0.961 | 0.697 | 0.829 |
| CCACACUUCAAACAAUCGGCC [Fam1B.1 aminoacylation ribozyme variant] | 1.77 | 8.32 | 1.96 | 2.19 | 7.9 | 1.61 |
| AUUACCCUGGUCAUCCAGUGG [Fam2.1 aminoacylation ribozyme variant] | 1.22 | 1.42 | 1.84 | 1.3 | 1.28 | 1.68 |
| CCACACGUCAAGCAAUCGGUG [Fam1B.1 aminoacylation ribozyme variant] | 1.63 | 9.7 | 2.02 | 2.78 | 2.35 | 1.59 |
| UUUACCCUGUUCAUCGAGUGA [Fam2.1 aminoacylation ribozyme variant] | 2.21 | 5.37 | 4.11 | 2.56 | 5.71 | 3.91 |
| AUUACCCUGGUCAUAGAGUUA [Fam2.1 aminoacylation ribozyme variant] | 1.25 | 0.667 | 1.39 | 1.1 | 0.786 | 0.921 |
| AUUACCGUGGUCAUCGGGUGA [Fam2.1 aminoacylation ribozyme variant] | 7.08 | 105 | 11.7 | 8.1 | 17.3 | 11.9 |
| AUUACCCUGGUCAUCGCAUGA [Fam2.1 aminoacylation ribozyme variant] | 2.01 | 13.8 | 3.2 | 1.75 | 3.77 | 3.5 |
| GCACACUGCAAGCAAUCGGUC [Fam1B.1 aminoacylation ribozyme variant] | 2.14 | 1.77 | 1.87 | 2.12 | 2.4 | 1.87 |
| CUACUUCGAACAAUCGGGCUG [Fam1A.1 aminoacylation ribozyme variant] | 1.3 | 0.645 | 1.02 | 1.54 | 1.57 | 1.24 |
| AUUCACCAAGGUCAUCGGGAG [Fam2.2 aminoacylation ribozyme variant] | 1.36 | 4.38 | 1.19 | 1.11 | 1.27 | 1.57 |
| CCACACUUCAAACAUUCGGUC [Fam1B.1 aminoacylation ribozyme variant] | 1.49 | 0.837 | 1.47 | 1.4 | 1.32 | 1.45 |
| AUUACCCUGGUCAUCGAUUGU [Fam2.1 aminoacylation ribozyme variant] | 0.753 | 0.73 | 0.73 | 0.785 | 0.386 | 0.736 |
| AUACGCCUAGGUCAUCGGGUG [Fam2.2 aminoacylation ribozyme variant] | 4.85 | 36 | 7.57 | 4.07 | 7.38 | 7.77 |
| AUUCACCGACGUCAUCGGGUG [Fam2.2 aminoacylation ribozyme variant] | 5.71 | 55.1 | 10.2 | 6.24 | 9.46 | 12.9 |
| AUGCACCUAGGUCAUUGGGUG [Fam2.2 aminoacylation ribozyme variant] | 2.33 | 16.6 | 2.3 | 2.16 | 2.72 | 2.53 |
| AUAACUCUGGUCAUCGAGUGA [Fam2.1 aminoacylation ribozyme variant] | 3.06 | 19.5 | 5.54 | 3.04 | 6.33 | 5.36 |

| Sequence | self-aminoacylation (biotinyl-Ile-oxazolone) | self-aminoacylation (biotinyl-Phe-oxazolone) | self-aminoacylation (biotinyl-Met-oxazolone) | self-aminoacylation (biotinyl-Val-oxazolone) | self-aminoacylation (biotinyl-Trp-oxazolone) | self-aminoacylation (biotinyl-Leu-oxazolone) |
| --- | --- | --- | --- | --- | --- | --- |
| CUCCUGCAAACAAUCGGUCUG [Fam1A.1 aminoacylation ribozyme variant] | 0.858 | 4 | 1.14 | 1.06 | 0.784 | 0.904 |
| AAGUUUGCUAUUACUCGCAAG [Fam3.1 aminoacylation ribozyme variant] | 0.728 | 1.09 | 0.734 | 0.868 | 0.738 | 0.82 |
| CCACACUUCAAUCAAUCGUUC [Fam1B.1 aminoacylation ribozyme variant] | 0.622 | 1.04 | 0.423 | 0.607 | 0.469 | 0.506 |
| AUUCACCUAGGUCAUCGCUUG [Fam2.2 aminoacylation ribozyme variant] | 1.18 | 4.33 | 1.32 | 1.12 | 0.795 | 1.26 |
| AUUCAGCUAGGUCAUCGGGAG [Fam2.2 aminoacylation ribozyme variant] | 1.72 | 4.09 | 1.61 | 1.68 | 1.32 | 1.69 |
| CUACUACAAACAAGCGGUCUG [Fam1A.1 aminoacylation ribozyme variant] | 1.11 | 0.606 | 1.1 | 1.2 | 0.883 | 1.25 |
| AUUACGCUGGUCAUCGAGGGA [Fam2.1 aminoacylation ribozyme variant] | 1.61 | 1.38 | 1.46 | 2.03 | 2.25 | 1.98 |
| AUUACCCUGGUCAUCACGUGA [Fam2.1 aminoacylation ribozyme variant] | 3.08 | 52.4 | 8.87 | 4.39 | 9.65 | 7.86 |
| AUCCAUCUAGGUCAUCGGGUG [Fam2.2 aminoacylation ribozyme variant] | 4.35 | 29.6 | 7.36 | 3.94 | 5.63 | 6.36 |
| AAGCUUGCUAAUAGUCGCAAC [Fam3.1 aminoacylation ribozyme variant] | 1.86 | 2.11 | 1.28 | 1.24 | 1.32 | 1.44 |
| AUUACCCUGGUCAUCGAGCCA [Fam2.1 aminoacylation ribozyme variant] | 2.01 | 2.92 | 2.36 | – | 3.35 | 2.23 |
| CUACUUCAAACAUUCGGGCUG [Fam1A.1 aminoacylation ribozyme variant] | 2.24 | – | 2.06 | 2.14 | – | – |
| CGACACUUCAAGCAAUCGGUG [Fam1B.1 aminoacylation ribozyme variant] | 2.4 | – | 2.37 | 2.27 | – | 2.22 |
| AUUCACUUAGUUCAUCGGGUG [Fam2.2 aminoacylation ribozyme variant] | 2.18 | 11.1 | 2.58 | – | 3.28 | 2.93 |
| ACGUUUGCUAAUAGUCGCAUG [Fam3.1 aminoacylation ribozyme variant] | 2.21 | 3.06 | 2.14 | – | – | 2.5 |
| ACUACCCUGGUCAUCGAGGGA [Fam2.1 aminoacylation ribozyme variant] | 2.12 | 2.42 | 3.62 | – | 3.04 | 3.13 |
| AAGUUCGCCAAUAGUCGCAAG [Fam3.1 aminoacylation ribozyme variant] | 2.29 | 2.83 | 2.18 | – | 2.98 | 2.67 |
| AUUCACCGAGGUCAUCGGGUC [Fam2.2 aminoacylation ribozyme variant] | 2.18 | 7.57 | – | 2.71 | – | 2.52 |
| AUUCACCUAAGUCAUCGGGUA [Fam2.2 aminoacylation ribozyme variant] | 2.81 | – | 2.44 | 2.62 | 2.8 | 3 |
| CCACACUUCGCGCAAUCGGUC [Fam1B.1 aminoacylation ribozyme variant] | 2.21 | 10.5 | – | 2.51 | 2.77 | 2.41 |
| AUUCACGUAGGUCAUCGGGCG [Fam2.2 aminoacylation ribozyme variant] | 2.07 | 5.97 | 2.41 | 2.56 | – | 2.57 |
| ACGUUUGCUAAUAGUCGCGAG [Fam3.1 aminoacylation ribozyme variant] | 2.65 | 10.4 | – | 2.12 | – | 2.48 |
| UUUCACCUAGGUAAUCGGGUG [Fam2.2 aminoacylation ribozyme variant] | 2.1 | 13.1 | 2.66 | – | 3.75 | 2.27 |
| AUCACCCUGGUCAUCGAGCGA [Fam2.1 aminoacylation ribozyme variant] | 2.01 | – | 2.16 | 2.53 | 2.62 | 3.35 |
| AUUCACCUAGGGCAUCGGGGG [Fam2.2 aminoacylation ribozyme variant] | 2.98 | 7.22 | 2.65 | 2.93 | – | 3.63 |
| CCACACUUCACGCAAUCGGCC [Fam1B.1 aminoacylation ribozyme variant] | 2.2 | 13.9 | 2.28 | 3.47 | 4.2 | – |
